Measurements reported in patent US20210371530A1 (Merck Sharp & Dohme, published 2021).
Numbering of substitutions follows the chain as printed. Numbers in names are those of the source.

B1: Fab 00APE (humanized 08A Fab with S61N correction) (Fab, V domains shown)
VH: EVQLVQSGAEVKKPGASVKVSCKASGYTFTSYYLYWVRQAPGQGLEWIGGVNPSNGGTNFNEKFKSRVTLTVDTSISTAYMELSRLRSDDTAVYYCTRRDSNYDGGFDYWGQGTTVTVSS
VL: DIVMTQTPLSLSVTPGQPASISCRASKSVSTSGFSYLHWYLQKPGQPPQLLIFLASNLESGVPDRFSGSGSGTDFTLKISRVEAEDVGVYYCQHSWELPLTFGQGTKLEIKR
B2: Anti-PD-1/LAG3 bispecific antibody 90ASU (bispecific antibody, human IgG1, kappa, L234A L235A)
heavy 1: not shown
light 1: DIVMTQTPLSLSVTPGQPASISCRASKSVSTSGFSYLHWYLQKPGQPPQLLIFLASNLESGVPDRFSGSGSGTDFTLKISRVEAEDVGVYYCQHSWELPLTFGQGTKLEIKRTVAAPSVFIFPPSDERLKSGTASVVCLLNNFYPREAKVQWKVDNALQSGNSQESVTEQDSKDSTYSLSSRLTLSKADYEKHKVYACEVTHQGLSSPVTKSFNRGEC
heavy 2: QMQLVQSGPEVKKPGTSVKVSCKASGYTFTDYNVDWVRQARGQRLEWIGDINPNDGGTIYAQKFQERVTITVDKSTSTAYMELSSLRSEDTAVYYCARNYRWFGAMDHWGQGTTVTVSSASTKGPSVFPLAPSSKSTSGGTAALGCLVKDYFPEPVTVSWNSGALTSGVHTFPAVLQSSGLYKLSSVVTVPSSSLGTQTYICNVNHKPSNTKVDKKVEPKSCDKTHTCPPCPAPEAAGGPSVFLFPPKPKDTLMISRTPEVTCVVVSVSHEDPEVKFNWYVDGVEVHNAKTKPREEQYNSTYRVVSVLTVLHQDWLNGKEYKCKVSNKALPAPIEKTISKAKGQPREPQVYVLPPSRDELTKNQVSLLCLVKGFYPSDIAVEWESNGQPENNYLTWPPVLDSDGSFFLYSKLTVDKSRWQQGNVFSCSVMHEALHNHYTQKSLSLSPG
light 2: DIVMTQTPLSLSVTPGQPASISCKASQSLDYEGDSDMNWYLQKPGQPPQLLIYGASNLESGVPDRFSGSGSGTDFTLKISRVEAEDVGVYYCQQSTEDPRTFGGGTKVEIKRTVAAPSVFIFPPSDEELKSGTATVVCLLNNFYPREAKVQWKVDNALQSGNSQESVTEQDSKDSTYSLSSYLELSKADYEKHKVYACEVTHQGLSSPVTKSFNRGEC
B3: Anti-PD-1/LAG-3 bispecific antibody 18ASS (bispecific antibody, human IgG1, kappa, L234A L235A)
heavy 1: not shown
light 1: B2 light 1 with A55S, S56K, N57Y, L58R, E59S, Q93S, H94Q, S95A, W96Y, E97H
heavy 2: B2 heavy 2
light 2: B2 light 2
B4: Humanized 08A IgG4 Fab 100 S61N G56A (antibody, V domains shown)
VH: B1 VH with G56A, D100L, N102H
VL: B1 VL with A55S, S56K, N57Y, L58R, E59S, Q93S, H94Q, S95A, W96Y, E97H
notes: also called 25AVE
B5: Humanized 08A IgG4 S61N (lot 98AIO) (antibody)
heavy: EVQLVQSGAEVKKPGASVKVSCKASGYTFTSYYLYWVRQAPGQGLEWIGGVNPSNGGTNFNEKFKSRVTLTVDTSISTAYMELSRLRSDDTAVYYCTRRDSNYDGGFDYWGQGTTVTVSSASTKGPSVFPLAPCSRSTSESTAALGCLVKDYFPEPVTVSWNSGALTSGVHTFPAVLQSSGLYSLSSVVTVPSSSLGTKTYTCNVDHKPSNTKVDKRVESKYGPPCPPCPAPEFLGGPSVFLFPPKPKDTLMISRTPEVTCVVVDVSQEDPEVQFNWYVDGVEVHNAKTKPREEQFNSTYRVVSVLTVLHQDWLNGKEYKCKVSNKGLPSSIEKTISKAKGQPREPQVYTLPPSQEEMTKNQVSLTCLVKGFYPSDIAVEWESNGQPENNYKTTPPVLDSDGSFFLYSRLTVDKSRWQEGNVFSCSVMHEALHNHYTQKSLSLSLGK
light: B2 light 1 with R128Q, R182T
notes: IgG4 S228P / kappa; also called 08A/HuPD1A-11 S61N S228P corrected IgG4 / Kappa
B6: Humanized 08A IgG4 S61N (lot 67AGG) (antibody)
heavy: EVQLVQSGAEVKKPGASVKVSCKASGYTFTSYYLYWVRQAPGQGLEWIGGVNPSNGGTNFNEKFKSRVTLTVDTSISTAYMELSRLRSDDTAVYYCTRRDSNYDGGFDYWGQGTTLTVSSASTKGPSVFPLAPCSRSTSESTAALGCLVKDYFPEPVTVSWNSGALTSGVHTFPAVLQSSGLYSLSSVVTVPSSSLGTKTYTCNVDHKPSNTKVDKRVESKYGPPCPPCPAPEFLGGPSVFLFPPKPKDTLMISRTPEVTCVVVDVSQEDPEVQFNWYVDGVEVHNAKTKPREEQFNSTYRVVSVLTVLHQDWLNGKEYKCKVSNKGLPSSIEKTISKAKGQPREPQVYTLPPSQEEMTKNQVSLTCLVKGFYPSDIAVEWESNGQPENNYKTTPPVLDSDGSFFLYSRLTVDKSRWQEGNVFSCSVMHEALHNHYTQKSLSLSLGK
light: B2 light 1 with R128Q, R182T
notes: IgG4 S228P / kappa; differs from 98AIO by an HFR4 mutation; also called 08A/HuPD1A-11 S61N WT S228P IgG4 / Kappa, with HFR4 mutation
B7: Humanized 08A IgG4 S61N G56A (antibody, V domains shown)
VH: B1 VH with G56A
VL: B1 VL
notes: IgG4 S228P / kappa; also called 51AQK; 08A/HuPD1A-11 S61N VH G56A IgG4 S228P / Kappa
B8: Humanized 08A IgG4 (antibody, V domains shown)
VH: B1 VH with N61S
VL: B1 VL
notes: IgG4 S228P / kappa, no CDRH2 corrections; also called 73AGG; 08A/HuPD1A-11 S228P IgG4 / Kappa
B9: Humanized 08A IgG4 G56A (antibody, V domains shown)
VH: B1 VH with G56A, N61S
VL: B1 VL
notes: IgG4 S228P / kappa; also called 89AVZ; 08A/HuPD1A-11 G56A IgG4 S228P / Kappa
B10: Humanized 08A IgG4 S61N N55E (antibody, V domains shown)
VH: B1 VH with N55E
VL: B1 VL
notes: IgG4 S228P / kappa; also called 50AQK; 08A/HuPD1A-11 N55E S228P IgG4 / Kappa
B11: Humanized 08A IgG4 Fab 098 G56A (antibody, V domains shown)
VH: B1 VH with G56A, N61S, D100L, N102H
VL: B1 VL
notes: IgG4 S228P / kappa; also called 90AVZ
B12: Mouse 09A (antibody, mouse IgG1, kappa, V domains shown)
VH: QVQLQQPGAELVKPGTSVKLSCKASGYTFTNYYMYWVKQRPGQGLEWIGGINPSNGGTNFNEKFKNKATLTVDSSSSTTYMQLSSLTSEDSAVYYCTRRDYRFDMGFDYWGQGTTLTVSS
VL: DIVLTQSPASLAVSLGQRAAISCRASKGVSTSGYSYLHWYQQKPGQSPKLLIYLASYLESGVPARFSGSGSGTDFTLNIHPVEEEDAATYYCQHSRDLPLTFGTGTKLELKR
notes: Mouse IgG1/kappa; also called 03AFN; Mouse x [PD-1_H] mAb (clone 09A) IgG1 / Kappa
B13: Mouse 08A (antibody, mouse IgG1, kappa, V domains shown)
VH: QVQLQQPGAELVKPGASVKLSCKASGYTFTSYYLYWMKQRPGQGLEWIGGVNPSNGGTNFSEKFKSKATLTVDKSSSTAYMQLSSLTSEDSAVYYCTRRDSNYDGGFDYWGQGTTLTVSS
VL: B12 VL with A9T, A20T, G28S, Y34F, S47P, Y53F, Y57N, R96W, D97E, T104A
notes: Mouse IgG1/kappa; also called 09AFF; parental mouse 08A antibody
B14: Mouse 08A N59Q (antibody, mouse IgG1, kappa, V domains shown)
VH: B13 VH with N59Q
VL: B12 VL with A9T, A20T, G28S, Y34F, S47P, Y53F, Y57N, R96W, D97E, T104A
notes: also called 38AFL; Clone 1.08 N59Q
B15: Mouse 08A N59A (antibody, mouse IgG1, kappa, V domains shown)
VH: B13 VH with N59A
VL: B12 VL with A9T, A20T, G28S, Y34F, S47P, Y53F, Y57N, R96W, D97E, T104A
notes: also called 80AFH; Clone 1.08 N59A
B16: Mouse 08A N59E (antibody, mouse IgG1, kappa, V domains shown)
VH: B13 VH with N59E
VL: B12 VL with A9T, A20T, G28S, Y34F, S47P, Y53F, Y57N, R96W, D97E, T104A
notes: also called 39AFL; Clone 1.08 N59E

These binders were tested against human PD-1 on cells (human, UniProt Q15116 25-288) (assay: cell-based or functional assay).
Chain of human PD-1 on cells (Q15116 25-288): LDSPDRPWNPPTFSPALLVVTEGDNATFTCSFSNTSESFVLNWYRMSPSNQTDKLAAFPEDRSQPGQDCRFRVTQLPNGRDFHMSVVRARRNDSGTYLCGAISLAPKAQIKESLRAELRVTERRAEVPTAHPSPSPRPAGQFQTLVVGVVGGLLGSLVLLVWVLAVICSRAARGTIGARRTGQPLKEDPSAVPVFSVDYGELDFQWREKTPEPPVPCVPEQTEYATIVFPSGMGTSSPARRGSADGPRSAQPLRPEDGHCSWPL

| AVG EC50 (nM), IL-2 luciferase reporter, Jurkat.hPD-1.IL2luc + THP-1.PD-L1 assay | Binder |
| --- | --- |
| 3.32 nM | B1 |
| 2.54 nM | B2 |
| 0.55 nM | B3 |

Each binder was assayed against T1, polyhistidine-tagged human PD-1 (hPD1-His, 98AFK) (human, UniProt Q15116 25-167, limits assumed) (assay: SPR capture format; reference Mouse 08A).
T1 construct: Lot 98AFK; also called human PD1-His; Human PD-1-His; not shown: polyhistidine tag
T1 sequence (Q15116 25-167 limits assumed): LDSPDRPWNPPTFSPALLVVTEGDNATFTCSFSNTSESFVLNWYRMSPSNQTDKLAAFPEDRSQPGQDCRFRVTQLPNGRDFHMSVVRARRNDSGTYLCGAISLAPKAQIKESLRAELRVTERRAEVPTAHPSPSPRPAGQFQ
Procedure: A surface plasmon resonance (SPR)-based assay utilizing capture mode was used to determine the binding kinetics and affinities of anti-PD-1 antibodies against polyhistidine-tagged human PD-1 (hPD1-His, 98AFK). Following manufacture instructions, a series S sensor chip CM5 (GE Healthcare, BR100530) was activated using an amine-coupling kit (GE Healthcare, BR100050). Either human capture kit (anti-human Fc, 25 μg/mL, GE Healthcare, BR100839) or mouse capture kit (anti-mouse Fc, 30 μg/mL, GE Healthcare, BR100838) antibody diluted in the supplied pH 5.0, 10 mM sodium acetate buffer was immobilized onto the activated surface for 7 minutes. After immobilization, surfaces were deactivated with 1M ethanolamine/HCl (pH 8.5) for 7 minutes. The final immoblization levels reached ˜8,000 resonance units (RU) for mouse capture or 12,000 RU for human capture in each of the four flow cells.
Binding kinetics were measured on a biacore T200 in HBS-EP+(0.01 M HEPES pH 7.4, 0.15 M NaCl, 3 mM EDTA, 0.05% v/v Surfactant P20) running buffer at 25° C. Antibodies were captured either on mouse or human Fc capture surfaces at 10 μL/min flow rate. Antibodies were captured on flow cells 2, 3 and 4. Flow cell 1 was used as a reference with no antibody captured. A 6-point, 2-fold serial dilutions of the analyte 98AFK (hPD1-His), starting at 20 nM, were prepared in the running buffer (HBS-EP+). Two buffer blanks were included for double referencing. Titration series were injected for 3 minutes at 50 μl/min followed by 600 seconds of dissociation. After each cycle, surfaces were regenerated with a 30 second injection of 3M MgCl2 at […] on the anti-human Fc chip or 180 seconds of 10 mM Glycine pH 1.7 at 10 μl/min on the anti-mouse Fc chip.
Sensorgram processing and data analysis were performed with Biacore T200 Evaluation Software Version 2.0.4 (GE Healthcare). […] Processed curves were globally fitted to a 1:1 binding model to determine the association rate constant, kₒₙ (M⁻¹s⁻¹, where “M” equals molar and “s” equals seconds) and the dissociation rate constant, koff (s⁻¹). These rate constants were used to calculate the equilibrium dissociation constant, KD (M)=koff/kₒₙ.

| KD (REF) / KD | Binder |
| --- | --- |
| 5.7 ratio | B4 |
| 4.4 ratio | B5 |
| 5.2 ratio | B6 |
| 4.2 ratio | B7 |
| 1.7 ratio | B8 |
| 2.4 ratio | B9 |
| 0.8 ratio | B10 |
| 3 ratio | B11 |
| 0.5 ratio | B12 |
| 1 ratio | B13 |
| 0.04 ratio | B14 |
| 0.4 ratio | B15 |
| 0.03 ratio | B16 |

The binders below were run against T1, polyhistidine-tagged human PD-1 … (assay: SPR solution affinity; reference Humanized 08A IgG4 S61N (98AIO)).
Procedure: The titration series were incubated for 16-24 hours to reach equilibrium at room temperature. The unbound sites were measured using a BIAcore chip immobilized with antigen in a competition mode where SPR signal detected corresponded to unbound antibody.
The titration series following >16 hr. incubation were injected over the sensor chip immobilized with hPD1-His (above). Free, unbound antibodies concentrations were measured as proportional to RU after 120 seconds (for 500 pM mAb series) or 400 seconds (for 100 pM mAb series) of injection at 10 μL/min. After each cycle, surfaces were regenerated with a 30 second injection of 1:1 mixture of 3M MgCl2 and pH 2.0 10 mM glycine at 30 μL/min
Data analyses were performed using KINEXA Pro Version 1.02 (Sapydyne) where RUs were normalized and plotted against concentrations.

| KD (REF) / KD | Binder |
| --- | --- |
| > 13 ratio | B4 |
| 1 ratio | B5 |
| 1 ratio | B7 |
| 0.6 ratio | B9 |
| 1.7 ratio | B11 |
